B1: LINE1-mini (parent)
chain: GGCAGAGCUCAACACAGCGUGGCAAAGUGGCUGUGGCUAGACUGCC

Among the data in the RNAGym collection of RNA variant scans (doi:10.7554/elife.90254) are self-cleavage values, retold here.

In this data set the parent is B1. In words: self-cleavage, relative activity (ratio to wild type); higher = more cleavage; in vitro, sequencing; the parent is a self-cleaving ribozyme.
As to G1A U32G, the self-cleavage was 0.09. Next, G1A U32A: 0.09. Then G1A U32C, with 0.11. G1A C23A: the self-cleavage came to 0.95. Regarding G1A C23G, the self-cleavage was 0.53.

Take G1A C23U: the self-cleavage was 1.29. As to G1C C46U, the self-cleavage turned out to be 0.18. Then G1C C46G, with 0.3; and G1C C46A, with 0.28. Then G1A G27U, with 1.95.

Turning to G1A G27C, the self-cleavage came out at 0.86. Turning to G1A G27A, the self-cleavage was determined as 1.81. Next, G1C C37A: 0.02. As to G1C C37U, the self-cleavage worked out at 0.02. Regarding G1C C37G, the self-cleavage was determined as 0.02. Then G1C, with 0.13.

Take G1U: the self-cleavage turned out to be 0.33. Turning to G1A, the self-cleavage came out at 1.11. With G1U A4C, the self-cleavage was found to be 0.06. Take G1U A4G: the self-cleavage stood at 0.25.

G1U A4U: the self-cleavage is 0.22.

With G1C G36C, the self-cleavage stood at 0.01. Next, G1C G36U: 0.03; G1C G36A: 0.05; G1U A12C: 0.02. For the variant G1U A12G, the self-cleavage amounted to 0.04. In the case of G1U A12U, the self-cleavage amounted to 0.08.

Take G1A A6U: the self-cleavage is 1.55. Take G1A A6G: the self-cleavage is 0.09. Next, G1A A6C: 0.81. As for G1C A41G, the self-cleavage amounted to 0.02. For G1C A41C, the self-cleavage was determined as 0.02. As to G1C A41U, the self-cleavage was determined as 0.1. Turning to G1A A16C, the self-cleavage is 0.11. Take G1A A16U: the self-cleavage turned out to be 0.1. In the case of G1A A16G, the self-cleavage is 0.25. Turning to G1A C15U, the self-cleavage is 1.02. Then G1A C15A, with 0.06. G1A C15G: the self-cleavage stood at 0.08. As for G1A A41C, the self-cleavage was 0.09. Then G1A A41G, with 0.26. Consider G1A A41U, for which the self-cleavage was determined as 0.97. For the variant G1C C3G, the self-cleavage turned out to be 0.1. As for G1C C3U, the self-cleavage was determined as 0.18.

Regarding G1C C3A, the self-cleavage amounted to 0.19. For G1U A24G, the self-cleavage was 0.25. For the variant G1U A24U, the self-cleavage amounted to 0.32. Then G1U A24C, with 0.36; and G1U A26C, with 0.32; and G1U A26U, with 0.34. Consider G1U A26G, for which the self-cleavage is 0.31. With G1U C42U, the self-cleavage was determined as 0.06. Consider G1U C42A, for which the self-cleavage was 0.07. For G1U C42G, the self-cleavage amounted to 0.04. With G1C U28C, the self-cleavage came to 0.02. In the case of G1C U28G, the self-cleavage turned out to be 0.07.

Regarding G1C U28A, the self-cleavage is 0.04. On to G1A C8G, for which the self-cleavage came to 0.41. As to G1A C8U, the self-cleavage was determined as 0.78. Regarding G1A C8A, the self-cleavage is 0.88. Then G1A G22C, with 1.94; and G1A G22A, with 0.94. For G1A C18G, the self-cleavage came to 0.38. Then G1A C18U, with 0.94; and G1A C18A, with 1.81.

For the variant G1U A25C, the self-cleavage worked out at 0.21.

G1U A25G: the self-cleavage worked out at 0.21. Take G1U A25U: the self-cleavage was determined as 0.45. For G1U C37U, the self-cleavage stood at 0.04. Regarding G1U C37A, the self-cleavage amounted to 0.06. On to G1U C37G, for which the self-cleavage is 0.03. Take G1C G5C: the self-cleavage was 0.02. On to G1C G5A, for which the self-cleavage came to 0.05. As to G1C G5U, the self-cleavage amounted to 0.02. In the case of G1C G7U, the self-cleavage was 0.03. Next, G1C G7C: 0.02. Take G1C G7A: the self-cleavage is 0.04. On to G1U C15G, for which the self-cleavage was determined as 0.04. Consider G1U C15U, for which the self-cleavage is 0.21. As to G1U C15A, the self-cleavage was determined as 0.08. Then G1C C45A, with 0.16. Turning to G1C C45U, the self-cleavage came out at 0.15. Turning to G1C C45G, the self-cleavage was found to be 0.16. With G1A G7A, the self-cleavage came to 0.51. On to G1A G7C, for which the self-cleavage was found to be 0.6. Turning to G1A G7U, the self-cleavage was 0.3. Take G1C C31G: the self-cleavage worked out at 0.01. With G1C C31A, the self-cleavage was 0.02.

Regarding G1C C31U, the self-cleavage turned out to be 0.04.

With G1C A24G, the self-cleavage came to 0.29. In the case of G1C A24U, the self-cleavage worked out at 0.2.

G1C A24C: the self-cleavage worked out at 0.07. For the variant G1C C23A, the self-cleavage turned out to be 0.16. For G1C C23G, the self-cleavage is 0.08. Then G1C C23U, with 0.07; and G1U C18U, with 0.51; and G1U C18A, with 0.16. G1U C18G: the self-cleavage came out at 0.06. Regarding G1A G33C, the self-cleavage was found to be 0.05. Consider G1A G33U, for which the self-cleavage is 0.09. Take G1A G33A: the self-cleavage stood at 0.09. Turning to G1A U43G, the self-cleavage came to 0.02. In the case of G1A U43C, the self-cleavage amounted to 0.11.

As to G1A U43A, the self-cleavage came to 0.05. In the case of G1C A6U, the self-cleavage came to 0.14. Turning to G1C A6C, the self-cleavage is 0.04. In the case of G1C A6G, the self-cleavage was determined as 0.02. Next, G1A C31U: 0.32; G1A C31G: 0.11. As for G1A C31A, the self-cleavage came out at 0.12. For G1C A12C, the self-cleavage was 0.02.

Consider G1C A12U, for which the self-cleavage is 0.06. On to G1C A12G, for which the self-cleavage is 0.02. Turning to G1C A14U, the self-cleavage is 0.02. Turning to G1C A14G, the self-cleavage turned out to be 0.08. Then G1C A14C, with 0.02; and G1C G22C, with 0.19; and G1C G22A, with 0.12.

Regarding G1C G22U, the self-cleavage worked out at 0.17.

On to G1C G40A, for which the self-cleavage came to 0.03. Consider G1C G40C, for which the self-cleavage amounted to 0.03.

With G1C G40U, the self-cleavage is 0.02. Then G1A G2C, with 0.24; and G1A G2A, with 1.83; and G1A G2U, with 0.47.

Consider G1C C10G, for which the self-cleavage is 0.03. For G1C C10U, the self-cleavage is 0.04. G1C C10A: the self-cleavage was 0.02.

On to G1A C46U, for which the self-cleavage turned out to be 2.95. Consider G1A C46G, for which the self-cleavage is 2.92. Take G1A C46A: the self-cleavage was 2.61. Regarding G1A G21U, the self-cleavage came to 1.38.

Consider G1A G21C, for which the self-cleavage came out at 2.09. Turning to G1A G21A, the self-cleavage was determined as 1.86. Then G1U A14U, with 0.16; and G1U A14G, with 0.12. Then G1U A14C, with 0.03; and G1A A14G, with 0.39; and G1A A14U, with 0.27.

As for G1A A14C, the self-cleavage is 0.1. Consider G1A G29U, for which the self-cleavage came out at 1.1. Turning to G1A G29C, the self-cleavage was 0.28. Next, G1A G29A: 0.63; G1U C23A: 0.36; G1U C23U: 0.31. In the case of G1U C23G, the self-cleavage is 0.24.

G1C C8U: the self-cleavage was determined as 0.07. On to G1C C8G, for which the self-cleavage came to 0.02. G1C C8A: the self-cleavage amounted to 0.06. For the variant G1A G19U, the self-cleavage turned out to be 0.94.

Regarding G1A G19C, the self-cleavage turned out to be 1.28. Next, G1A G19A: 1.77. Next, G1U A6C: 0.51. In the case of G1U A6U, the self-cleavage was found to be 0.22. As to G1U A6G, the self-cleavage turned out to be 0.07. With G1U C8U, the self-cleavage came out at 0.12.

In the case of G1U C8G, the self-cleavage was determined as 0.06. Then G1U C8A, with 0.08; and G1A A26G, with 1.58; and G1A A26C, with 0.78.

As for G1A A26U, the self-cleavage is 0.53. Then G1A G17C, with 0.18; and G1A G17U, with 0.13. G1A G17A: the self-cleavage was 0.15. Next, G1A A12G: 0.04; G1A A12U: 0.19; G1A A12C: 0.04.
